Measurements from paper PMC9284671 (Structure (London, England : 1993), 2022).

Target: T1, short SARS-CoV-2 peptide (10 residues) of the ITC (SARS-CoV-2)
T1 chain: FKEELDKYFK
Assay: ITC

B1: WS6 (monoclonal antibody, IgG) (antibody, V domains shown)
VH: EVQFQQSGTVLARPGASVKMSCKASGYTFTNYWIHWVKQRPGQGLEYIGGTYPGNGDTTYNQKFKGKAKVTAVTPTSTAYMDLSSLTNEDSAVYYCTRTGSYFDYWGQGTTLTVSS
VL: QIVLTQSPAIMSASPGEKVTISCSATSSVSYIYWYQQRPGSSPKPWIYRTSNLASGVPVRFSGSGSGTSYSLTISNMEAEDAATYYCQQYQSYPPTFGAGTKLELK
B1 showed a Kd of 22 nM.
